Columns and labels:
AT1A receptor-eYFP = AT1A receptor-eYFP (UniProt P25095); test: FRET or BRET; BRET in living HEK293 cells stably expressing AT1A receptor-eYFP and transiently RLuc-CaM, CaM-RLuc or RLuc; 5 µM coelenterazine; ratio 525 nm/460 nm; with or without W7 (20 min) and/or 100 nM Ang II
GST-ATi3N(213–234)W219A = GST-ATi3N(213–234)W219A (UniProt P25095); test: pull-down; 50 pmol GST-fusion protein with purified bovine brain CaM (50 pmol) in 250 µl of 100 mM Tris-HCl pH 7.5 with 0.1 mM CaCl2; 4°C; glutathione-sepharose 4B beads; immunoblot with anti-CaM; for the mutants density of CaM against loaded GST-fusion protein
GST-ATctN(297–324)F313A = GST-ATctN(297–324)F313A (UniProt P25095); test: as above
GST-ATctN(297–324)F309A = GST-ATctN(297–324)F309A (UniProt P25095); test: as above
GST-ATi3(213–242) = test: pull-down; competition: 2 pmol GST-fusion protein incubated with bovine brain CaM (2 or 10 pmol) for 30 minutes in 20 mM Tris-HCl, 70 mM NaCl, 0.1 mM CaCl2, pH 7.5, then 2 pmol Gβγ for 1 hour; glutathione-sepharose 4B beads; immunoblot with anti-Gβ
GST-ATct(297–359) = test: as above

GST-ATi3(213–242), sequence (P29754 213-242): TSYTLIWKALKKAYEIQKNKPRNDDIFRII
AT1A receptor-eYFP, sequence (P25095 whole entry, the tested form may be a part): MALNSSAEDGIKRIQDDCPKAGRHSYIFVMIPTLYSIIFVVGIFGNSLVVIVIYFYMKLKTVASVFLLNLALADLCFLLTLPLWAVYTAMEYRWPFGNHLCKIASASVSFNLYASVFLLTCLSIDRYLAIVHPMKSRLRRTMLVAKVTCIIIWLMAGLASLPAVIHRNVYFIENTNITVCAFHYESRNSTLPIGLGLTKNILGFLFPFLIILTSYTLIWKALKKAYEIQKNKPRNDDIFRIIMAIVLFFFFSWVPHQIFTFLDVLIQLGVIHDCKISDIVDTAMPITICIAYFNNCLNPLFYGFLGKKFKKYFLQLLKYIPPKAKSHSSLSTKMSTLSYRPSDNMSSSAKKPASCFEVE
GST-ATi3N(213–234)W219A, sequence (P25095 213-234 W219A): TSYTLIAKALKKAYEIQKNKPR
GST-ATctN(297–324)F309A, sequence (P25095 297-324 F309A): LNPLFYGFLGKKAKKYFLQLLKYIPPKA
GST-ATctN(297–324)F313A, sequence (P25095 297-324 F313A): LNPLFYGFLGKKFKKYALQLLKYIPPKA

| Substance | BRET ratio with the CaM inhibitor W7, % of untreated (% of non-W7-treated) (AT1A receptor-eYFP) | relative binding efficiency, % of wild type (% of wild type) (GST-ATi3N(213–234)W219A) | relative binding efficiency, % of wild type (% of wild type) (GST-ATctN(297–324)F313A) | relative binding efficiency, % of wild type (% of wild type) (GST-ATctN(297–324)F309A) | Gβγ bound to GST-i3 loop with 2 pmol CaM, % of no CaM (GST-ATi3(213–242)) [%] | Gβγ bound to GST-i3 loop with 10 pmol CaM, % of no CaM (GST-ATi3(213–242)) [%] | Gβγ bound to GST-ct with 2 pmol CaM, % of no CaM (GST-ATct(297–359)) [%] | Gβγ bound to GST-ct with 10 pmol CaM, % of no CaM (GST-ATct(297–359)) [%] |
| --- | --- | --- | --- | --- | --- | --- | --- | --- |
| CaM-RLuc (from UniProt P0DP23 1-149) (natural protein) | 40 |  |  |  |  |  |  |  |
| calmodulin purified from bovine brain (from UniProt P62157 1-149) (natural protein) |  | 32 | 22 | 29 | 77 | 60 | 73 | 34 |
